Measurements: paper PMC8093829

B1: recombinant L-asparaginase refolded from E. coli inclusion bodies, P00805 23-348 (enzyme)
chain: LPNITILATGGTIAGGGDSATKSNYTVGKVGVENLVNAVPQLKDIANVKGEQVVNIGSQDMNDNVWLTLAKKINTDCDKTDGFVITHGTDTMEETAYFLDLTVKCDKPVVMVGAMRPSTSMSADGPFNLYNAVVTAADKASANRGVLVVMNDTVLDGRDVTKTNTTDVATFKSVNYGPLGYIHNGKIDYQRTPARKHTSDTPFDVSKLNELPKVGIVYNYANASDLPAKALVDAGYDGIVSAGVGNGNLYKSVFDTLATAAKTGTAVVRSSRVPTGATTQDAEVDDAKYGFVASGTLNPQKARVLLQLALTQTKDPQQIQQIFNQY
B2: commercial L-asparaginase 5,000 IU/ml, Bionase 5K, P00805 23-348 (enzyme)
chain: B1 chain

Assays:
[1] = target: T1, recombinant L-asparaginase refolded from E. coli inclusion bodies, P00805; test: SEC; Superdex 200 PG 16/600, equilibrated with 20 mM Tris-HCl, 10% (v/v) glycerol, pH 8.5, eluted in 50 mM Tris-HCl, 0.5 ml/min; DEAE-purified, concentrated refolded L-asparaginase; conditions: remark: other sources report otherwise
T1 chain: B1 chain

[2] = target: T2, commercial L-asparaginase 5,000 IU/ml, Bionase 5K, P00805; test: SEC; HPLC, TSK gel G3000SWxl, 20 mM Tris-HCl and 100 mM NaCl; commercial L-asparaginase concentrated to 2 mg/ml; conditions: remark: other sources report otherwise
T2 chain: B1 chain

| Binder | stoichiometry N [1] | stoichiometry N [2] | tetrameric population (%) [2] |
| --- | --- | --- | --- |
| B1 | 4 | – | – |
| B2 | – | 4 | 81.4% |
